Results from patent publication US20230227514A1, “BETA-ARRESTIN COMPOSITIONS AND ASSOCIATED METHODS” (Duke University, priority 2020, published 2023).

Tests used:
Format in all cases: cell-based
[1] = molecular target: T1, RanGAP1 (Homo sapiens, UniProt P46060); assay: Confocal colocalization with endogenous RanGAP1 at the nuclear envelope; details: HEK-293 cells with or without β2AR agonist stimulation
T1 construct: endogenous in cells; host or cells: HEK-293T / HEK-293
Protocol: Immunostaining and confocal microscopy. […] Twenty-four hours post-transfection, cells were serum-starved for 4 h, and either left untreated or treated with respective agonists for the indicated times in the Figure descriptions. After stimulation, cells were fixed with 5% formaldehyde diluted in phosphate-buffered saline (PBS), permeabilized with 0.1% Triton in PBS containing 2% bovine serum albumin for 20 min and incubated at room temperature with appropriate primary antibody. The next day, cells were washed three times with PBS and incubated with Alexa594 conjugated secondary antibody for 1 h, followed by repeated washes using PBS. Confocal images were acquired using Zeiss LSM510 laser-scanning microscope using multitrack sequential with excitation (488 and 568 nm) and emission (BP 505-550 nm and LP 585 nm) filter sets. Images (1024×1024 pixels) were collected using either a 63× or 100× oil immersion lens. Images were processed for Figure presentation using Adobe Photoshop software, and any increase or decrease of brightness/contrast was applied to the entire image. The nuclear rim localization of YFP-βarrestin2-SUMO1 is readily visualized in cells with low to moderate expression of YFP-protein. In cells with high expression, this localization is present, and can be discerned by enlarging sections of the nuclear rim. […]

[2] = molecular target: T2, β2AR (Homo sapiens, UniProt P07550); assay: Confocal trafficking and colocalization with β2AR; details: HEK-293 cells with stable β2AR expression; agonist up to 20 minutes
T2 construct: Flag (N); expressed in transfected cells
Protocol: Immunostaining and confocal microscopy. […] Twenty-four hours post-transfection, cells were serum-starved for 4 h, and either left untreated or treated with respective agonists for the indicated times in the Figure descriptions. After stimulation, cells were fixed with 5% formaldehyde diluted in phosphate-buffered saline (PBS), permeabilized with 0.1% Triton in PBS containing 2% bovine serum albumin for 20 min and incubated at room temperature with appropriate primary antibody. The next day, cells were washed three times with PBS and incubated with Alexa594 conjugated secondary antibody for 1 h, followed by repeated washes using PBS. Confocal images were acquired using Zeiss LSM510 laser-scanning microscope using multitrack sequential with excitation (488 and 568 nm) and emission (BP 505-550 nm and LP 585 nm) filter sets. Images (1024×1024 pixels) were collected using either a 63× or 100× oil immersion lens. Images were processed for Figure presentation using Adobe Photoshop software, and any increase or decrease of brightness/contrast was applied to the entire image. The nuclear rim localization of YFP-βarrestin2-SUMO1 is readily visualized in cells with low to moderate expression of YFP-protein. In cells with high expression, this localization is present, and can be discerned by enlarging sections of the nuclear rim.
For βarrestin2-SUMO1, plasma membrane translocation was detected upon β2AR agonist activation, and, intriguingly, βarrestin2-SUMO1 was detected in endocytic vesicles. […] Confocal images were taken of cells stably expressing the β2AR and transiently expressing YFP-SUMO1 (data not shown). In both quiescent and agonist-treated cells, the SUMO1 protein remained in the nucleus. […] See Shenoy et al. 2007, supra; Shenoy and Lefkowitz. 2005. J Biol Chem 280:15315-15324; and Shenoy and Lefkowitz. 2003. J Biol Chem 278:14498-14506. Therefore, the endosomal trafficking was compared for βarrestin2-ubiquitin (βarrestin2-Ub) fusion protein and internalized β2ARs. […]

[3] = molecular target: T3, D2 dopamine receptor (D2R) (Homo sapiens, UniProt P14416); assay: BRET dose-response assay of βarrestin2 construct recruitment to D2R-RlucII; details: D2R-RlucII with YFP constructs; dopamine 15 min; compared with YFP-βarrestin2
T3 construct: expressed in transfected cells
Protocol: HEK-293 cells were transiently transfected with D2R-RlucII along with YFP-βarr2-WT, YFP-βarr2-SUMO1 or YFP-βarr2-Ub and incubated with the indicated concentrations of dopamine for 15 min. BRET signals were measured as described in Example 1 herein, and changes following agonist treatment are expressed as a percentage of the BRET signal observed in unstimulated cells (top panel). […] The histogram (bottom panel) represents Bmax values of agonist induced BRET as means±SEM of 4 independent experiments performed in duplicates. Significance of changes in energy transfer was established by one-way ANOVA comparing signals measured for the recruitment of βarr2 fusion proteins to D2R-RlucII *p<0.01; **p<0.001.
BRET assays. […] BRET readings were acquired using Synergy Neo2 plate reader and obtained 5 min after manual addition of Rluc substrate, coelenterazine h (Promega) to a final concentration of 5 μM.
The BRET signal generated was determined by calculating the ratio of light emitted by YFP (520-550 nm) over the light emitted by Rluc (440-480 nm). These values were then corrected by subtracting the background signal (detected when the Rluc-tagged construct was expressed without acceptor) from the BRET signal detected in cells co-expressing both donor and acceptor constructs. […]

T1 sequence (P46060 2-587 limits assumed): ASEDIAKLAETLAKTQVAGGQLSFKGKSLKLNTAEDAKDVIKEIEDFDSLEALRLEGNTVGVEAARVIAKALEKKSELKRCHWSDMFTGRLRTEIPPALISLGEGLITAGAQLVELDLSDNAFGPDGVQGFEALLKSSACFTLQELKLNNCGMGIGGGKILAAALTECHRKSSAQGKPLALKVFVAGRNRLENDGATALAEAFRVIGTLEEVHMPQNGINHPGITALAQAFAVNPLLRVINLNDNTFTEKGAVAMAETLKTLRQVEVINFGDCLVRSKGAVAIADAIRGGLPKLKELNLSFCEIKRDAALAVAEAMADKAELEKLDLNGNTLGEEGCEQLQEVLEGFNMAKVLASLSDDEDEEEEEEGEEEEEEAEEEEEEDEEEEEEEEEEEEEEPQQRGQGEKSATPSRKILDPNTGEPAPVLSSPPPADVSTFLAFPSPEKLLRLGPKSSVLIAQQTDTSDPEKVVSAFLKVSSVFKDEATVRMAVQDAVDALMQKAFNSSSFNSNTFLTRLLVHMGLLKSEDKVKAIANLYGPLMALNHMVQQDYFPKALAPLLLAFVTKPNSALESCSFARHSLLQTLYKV
T1 sequence (P63165 2-97 partner limits assumed): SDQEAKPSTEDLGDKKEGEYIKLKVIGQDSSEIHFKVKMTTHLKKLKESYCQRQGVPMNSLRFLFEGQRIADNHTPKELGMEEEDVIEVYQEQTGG
T3 sequence (P14416 whole entry): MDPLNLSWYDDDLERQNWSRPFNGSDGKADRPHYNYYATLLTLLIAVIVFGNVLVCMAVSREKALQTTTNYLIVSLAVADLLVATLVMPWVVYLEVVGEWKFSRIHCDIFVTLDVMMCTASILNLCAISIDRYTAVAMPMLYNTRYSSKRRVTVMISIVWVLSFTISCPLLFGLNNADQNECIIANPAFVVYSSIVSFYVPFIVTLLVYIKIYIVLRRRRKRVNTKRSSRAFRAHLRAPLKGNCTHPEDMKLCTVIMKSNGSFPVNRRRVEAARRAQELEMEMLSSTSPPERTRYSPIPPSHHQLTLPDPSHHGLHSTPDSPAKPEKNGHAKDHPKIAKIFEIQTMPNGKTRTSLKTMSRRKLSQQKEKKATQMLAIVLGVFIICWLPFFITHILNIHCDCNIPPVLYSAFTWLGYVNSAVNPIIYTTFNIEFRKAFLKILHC

Substance: βarrestin2-SUMO1: rat βarrestin2 polypeptide fused to human SUMO1 (SEQ ID NO:1); used YFP- or Flag-tagged
- colocalization with endogenous RanGAP1 at the nuclear envelope [1]: dramatic increase in colocalization
- colocalization / complexes with β2AR after agonist activation (confocal) [2]: persisted with longer agonist activation
- agonist-mediated increase in energy transfer (net BRET) with D2R [3]: greater
